Assay results from patent EP4751739A1 (Jiangsu Hengrui Pharmaceuticals Co., Ltd., dated 2025).

B1: antibody-drug conjugate-1 (ADC-1) (antibody, human IgG2, kappa, V domains shown)
VH: QVQLVESGGGVVQPGRSLRLSCAASGFSLSNYGVHWVRQAPGKGLEWLAVIWSGGSTNYAAAFVSRLTISKDNSKNTVYLQMNSLRAEDTAVYYCARNHDNPYNYAMDYWGQGTTVTVSS
VL: DIVLTQSPDSLAVSLGERATINCRADKSVSTSTYNYLHWYQQKPGQPPKLLIYLASNLASGVPDRFSGSGSGTDFTLTISSLQAEDVAVYYCQHSRDLPPTFGQGTKLEIKR
modifications: compound 9-A may also be coupled to reduced cysteines of this chain; positions not given; compound 9-A (maleimidocaproyl-GGFG linker with exatecan derivative) coupled to cysteines of the TCEP-reduced antibody; positions not given; target DAR n = 5.3, found n = 4.7-5.9 per antibody
B2: Ab-10 humanized antibody (antibody, human IgG2, kappa, V domains shown)
VH: B1 VH
VL: B1 VL
notes: Humanized anti-c-Met antibody; Embodiments name human IgG2 and kappa constant regions; also called naked antibody Ab-10; Ab-10 Naked antibody

Key:
[1] = biological target: T1, human c-Met on tumor cell lines (human, UniProt P08581 25-1390); assay: cell-based or functional assay
T1 sequence (P08581 25-1390): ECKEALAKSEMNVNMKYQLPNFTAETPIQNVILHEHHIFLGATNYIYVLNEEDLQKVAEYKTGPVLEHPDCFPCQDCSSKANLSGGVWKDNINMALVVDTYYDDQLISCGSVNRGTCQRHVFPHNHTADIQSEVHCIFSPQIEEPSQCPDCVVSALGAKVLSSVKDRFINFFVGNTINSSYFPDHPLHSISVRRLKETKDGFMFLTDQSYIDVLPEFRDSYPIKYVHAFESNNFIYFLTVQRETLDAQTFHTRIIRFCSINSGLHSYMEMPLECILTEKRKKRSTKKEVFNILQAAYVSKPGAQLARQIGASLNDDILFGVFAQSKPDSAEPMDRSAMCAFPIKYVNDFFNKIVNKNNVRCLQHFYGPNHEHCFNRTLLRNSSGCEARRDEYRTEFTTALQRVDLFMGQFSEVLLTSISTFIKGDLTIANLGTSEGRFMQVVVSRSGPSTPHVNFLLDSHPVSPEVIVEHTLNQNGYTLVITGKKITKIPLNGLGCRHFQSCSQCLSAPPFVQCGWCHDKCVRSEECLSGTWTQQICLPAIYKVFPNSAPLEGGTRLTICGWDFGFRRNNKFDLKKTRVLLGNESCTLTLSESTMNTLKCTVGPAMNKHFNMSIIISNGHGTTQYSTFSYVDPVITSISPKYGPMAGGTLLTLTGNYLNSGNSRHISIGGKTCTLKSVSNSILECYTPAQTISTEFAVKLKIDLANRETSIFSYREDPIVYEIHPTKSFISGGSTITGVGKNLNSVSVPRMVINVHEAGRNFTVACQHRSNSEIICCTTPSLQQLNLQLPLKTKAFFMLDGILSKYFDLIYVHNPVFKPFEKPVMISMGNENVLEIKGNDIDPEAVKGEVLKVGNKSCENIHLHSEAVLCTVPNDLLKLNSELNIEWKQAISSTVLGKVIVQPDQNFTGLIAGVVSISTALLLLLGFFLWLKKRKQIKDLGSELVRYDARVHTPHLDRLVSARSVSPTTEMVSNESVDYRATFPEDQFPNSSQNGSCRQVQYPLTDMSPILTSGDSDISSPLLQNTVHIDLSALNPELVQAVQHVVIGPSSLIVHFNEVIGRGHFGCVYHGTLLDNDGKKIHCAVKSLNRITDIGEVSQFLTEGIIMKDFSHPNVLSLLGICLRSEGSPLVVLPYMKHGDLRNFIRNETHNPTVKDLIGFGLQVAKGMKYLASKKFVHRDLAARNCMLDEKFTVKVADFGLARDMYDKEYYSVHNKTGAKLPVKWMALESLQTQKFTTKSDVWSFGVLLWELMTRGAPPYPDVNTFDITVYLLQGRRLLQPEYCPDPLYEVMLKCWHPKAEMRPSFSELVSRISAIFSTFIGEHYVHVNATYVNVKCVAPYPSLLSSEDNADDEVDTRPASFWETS

[2] = biological target: T1, human c-Met on tumor cell lines; assay: cell-based or functional assay; remark: listed apart in the source
[3] = biological target: T2, Cynomolgus monkey c-Met protein (cynomolgus monkey); assay: SPR (Biacore 8K), ADC captured on Protein A chip, c-Met protein as analyte, 25 °C, 1:1 Langmuir fit
T2 construct: Soluble analyte in Biacore; also called cyno-c-Met

[4] = biological target: T2, Cynomolgus monkey c-Met protein; assay: SPR (Biacore 8K), antibody captured on Protein A chip, c-Met protein as analyte, 25 °C, 1:1 Langmuir fit

Row | Binder | IC50 for the inhibition of proliferation, EBC-1 cells (c-Met expression High), CellTiter Glo, 6 days [1] [nM] | IC50 for the inhibition of proliferation, HCT116 cells (c-Met expression Low), CellTiter Glo, 6 days [1] [nM] | IC50 for the inhibition of proliferation, Hs 746T cells (c-Met expression High), CellTiter Glo, 6 days [1] [nM] | IC50 for the inhibition of proliferation, MKN-45 cells (c-Met expression High), CellTiter Glo, 6 days [1] [nM] | IC50 for the inhibition of proliferation, NCI-H441 cells (c-Met expression Moderate), CellTiter Glo, 6 days [1] [nM] | IC50 for the inhibition of proliferation, NCI-H1299 cells (c-Met expression Low), CellTiter Glo, 6 days [1] [nM] | IC50 for the inhibition of proliferation, NCI-H1993 cells (c-Met expression High), CellTiter Glo, 6 days [1] [nM] | IC50 for the inhibition of proliferation, NCI-N87 cells (c-Met expression Low), CellTiter Glo, 6 days [1] [nM] | IC50 for the inhibition of proliferation, SW480 cells (c-Met expression Low), CellTiter Glo, 6 days [1] [nM] | Endocytosis ratio% at 0 h, EBC-1 cells, 20 nM, flow cytometry [2] [%] | Endocytosis ratio% at 0.5 h, EBC-1 cells, 20 nM, flow cytometry [2] [%] | Endocytosis ratio% at 2 h, EBC-1 cells, 20 nM, flow cytometry [2] [%] | Endocytosis ratio% at 4 h, EBC-1 cells, 20 nM, flow cytometry [2] [%] | Endocytosis ratio% at 24 h, EBC-1 cells, 20 nM, flow cytometry [2] [%] | Kd [3] [nM] | Kd [4] [nM]
1 | B1 | 0.065 | 23.9 | 0.125 | 0.055 | 0.48 | > 200 | 0.181 | > 200 | > 200 | 0 | 30.2 | 61 | 80.6 | 98.2 | 48.5 | 
2 | B2 | 0.051 | > 200 | 0.134 | 0.176 | > 200 | > 200 | 0.203 | > 200 | > 200 | 0 | 24.5 | 62.6 | 83 | 98.4 |  | 47.9
